By stoichiometry N is commonly meant the number of molecules, sites or subunits per partner or assembly.

Experimental findings from doi:10.1101/2021.09.12.459962 (bioRxiv, 2021) are described below.

This data set concerns the molecule itself. The experiment in a line: AUC; sedimentation equilibrium of UDS1-His at 4 µM, 6000 to 9000 rpm, single-species model; monomers to dimer.

B1: UDS1-His6 (natural protein, Aspergillus nidulans, UniProt Q5B1I5 1-941, looked up)
chain: MNGFDFRSSQSSYGDPRHFSDASYGVPQPPPTKVLLDGYRDALGPANAEKSLYNSANPTSHPRRSIPPSANDPVAMYLLTETAMGDSVNYEILSVEEVEGLKKELRVLSNRMNAAKRKLALELKLRDAAMSLSRLHHKEEHDVDGSGRNEPNTDKTNEELVHINRKCEELSMDIWYSERKVQEIQKRLLEHTAGVLQLTHKGLKKNSKNGMPHTPESLSSSNTVDDFDDRSLYKASDPLDGPETYETRAPPPDNLAHDNSMQETERKLESMSSRLRDMLLQLDPDSEFSQIPQPSTSGDSFEPSAMIDAHLRYIENGISALGSLPKADMASQSLDPVSEQQLVEMRTQLLSIMENPGLPRAQTLPTAPDPTDSDLAKHLTFLSVGINGLESRVEKLLEQKSILTTQIQQQRELNSKSDAERDAKIADLIEQLAHLRKELELAEREGQQSKEDHDLTLKELEDVRRELLESRETHSSRDLGNSKNEAQQHAEAEIARLQSVIQEIQQEKDEHCEAHRRAEAEIDRLQAVIHQIQQEKDEHREAHERAEAETTRLQTIVEEVQQEKDEQHEAHGRAVAEVTRLQDIIQKIEQEKIERHEADERAEAEIVRLRDTIREIQQEKEEHHEARVRLEGEVARLQGVIGQLQESAESRESAEQQVAQLEETIHQIRHDADIRIKEATDSRAQADAKIAQLEGAMNEVRESLESQLKEATEARNNAEENSTRLQKELTELERDVVRAQTELTMVKAELDGAYGTRAQRAAEAAADPALFHELDELKARNFEMAEELAALKAGKPGSGDVHNRVETLERELRETVDDYEAMTKASIEFEKERERFESMIDSLRDRCEQLETQLNEERISWMGANNSASSMGRDGPYETTSTMVLKNEFKKMMRDTRAENMKILKAEQEERRKLEAILRNLKREQANLSGKSNISRTVTAS
notes: UDS1, product of AN5595 of Aspergillus nidulans, 941 residues; UDS1 cDNA cloned as NheI/NotI in pET21b; Mr 106,857 Da; Dimer by sedimentation equilibrium; also called purified UDS1; bacterially expressed UDS1; source: E. coli BLB21 pRIL, purified (Ni-Sepharose, Superdex gel filtration)
B1: the “stoichiometry N” value turned out to be 2.
